Source: the supplement of paper PMC12764529
± gives the half width of the 95% confidence interval.

Test: folding stability dG unfold (combined trypsin and chymotrypsin); higher = more stable
Procedure, shortened: (§1)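 Sequencing followed digestion of designed mini-proteins with trypsin and chymotrypsin, each at 11 concentrations in threefold dilutions together with a no-protease condition. The mini-proteins were under 80 residues, had no cysteine, sat in a PA-tagged cDNA display construct, and were kept only if AlphaFold2 dimer inter-PAE was above 15. From the counts, Bayesian fitting gave K50, and unfolding free energy was derived against a sequence-predicted unfolded-state K50 and a shared folded-state K50, per protease or combined.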

Sequence | folding stability dG unfold
SAGGSAGGSKVLIIEPEENKELAEKIAKELKEKGELGEVEIKTFSSPEEAKEYAKNYDIVITGSAGGSAGGS [r12_679_TrMRF] | 0.302 ± 0.14 kcal/mol
SAPPETVEVEEVAEFELADGSKVTVAKVKLPNGETLVVVTVYNKDGEPVATFVVREGDPDALAEALKALSSA [r9_1069_TrROS_Hall] | 4.51 ± 0.13 kcal/mol
SAGGSAGGSAGGSEGAPIRVTLTGTRTETRTRPDGSPVTDSGTDTVEFTLDLYDPEKSGSAGGSAGGSAGGS [r4_450_TrMRF] | -0.363 ± 0.21 kcal/mol
SAGGSAGGGWITIPIYIIKMKRTRRDPDGKPKPLDPNDPEDFEVVPPRPFRIPLPPEEAKKLLKSAGGSAGG [r6_219_TrROS] | -0.434 ± 0.24 kcal/mol
SAGGMPPVVLEYEIDIKPDPNETLEDVLEKAEEFVEELKEAFPELDLKEVKVEVDPEKGKVKITVVFPSAGG [r13_1011_TrMRF] | 1.92 ± 0.12 kcal/mol
SAGKVIVIDAEEMTEEELKEILKKTKPGEKILIIAKSKEVAEKLKELGFEVEEVEKVPLTEEELKKLKKSAG [r5_354_TrROS_Hall] | 1.08 ± 0.14 kcal/mol
SAGGSALYIPPGTEHTVLIKLKDDDRYYEAKVTRVYPTSIEVEVEDPLTGEKKRYTINATDIELGDSAGGSA [r15_381_TrMRF] | 2.18 ± 0.18 kcal/mol
SAGGKIKIVLSAEELEKKFGKSIEELAAELAKKLFPNKKVKVKKVKIEKDENGKEKLYVEVEIEPEKPSAGG [r13_723_TrROS_Hall] | 3.11 ± 0.17 kcal/mol
SAGGSAGGSAGGNIEVLPIPDGYWVIKIPDGRIMVFNPGRGEFEPIPIENVTIEPVRPGDSAGGSAGGSAGG [r7_656_TrROS] | 0.783 ± 0.076 kcal/mol
SAGKKKKKKLKITIEITYNKETNTVTIKITVDGKEITVEVKAKSKEEALLNALKELEKKLNIKIKEVKLSAG [r5_251_TrROS_Hall] | 2.27 ± 0.36 kcal/mol
EMTEEELREKLPELSPEELEELARKLAEELGIEEVEEVEVVSVKPDGTIEVKVKLKDGEELTIEIPLEELLS [r1_435_TrROS_Hall] | 2.47 ± 0.22 kcal/mol
SAGGSAGGSAGGSPVAAKTLSKSTSLLPNGKVKTSTTTAFPTGETTTTTTTTPLSLTLTSAGGSAGGSAGGS [r10_1206_JUSTAS] | -0.0493 ± 0.12 kcal/mol
SAGGSGSQEVDIDFKFPPNFNMDELAKKIEELPGIDIKPDRYDPENGTYKITINVNDPQAVREIIRSAGGSA [r2_305_TrROS] | -0.483 ± 0.5 kcal/mol
SAGGMTPEELREKAKKLAEELAKKLKEKYPNVKVEVEVDEETKKVKIKVKNKKTGKTYEITINLEELLSAGG [r13_354_TrROS_Hall] | 4.09 ± 0.42 kcal/mol
SAGGATITVEPAPGDSVVALAEFGDSLALVTFYPKEATAKVTVFGPNGIPSTATFTIKPGEELVITGSAGGS [r8_11_TrMRF] | 1.47 ± 0.13 kcal/mol
SMIKPGEKIKKIKLKLENGEEVEATLVKNEDGSLVLFIKVDGEVYVFTFNPDGEIKIEKVSKEEAEKLLKSA [r9_1144_TrROS_Hall] | 3.4 ± 0.15 kcal/mol
SEKIVIEFPNPEEATVELIKSIIKPYLEPGEKVKIKVFSKDGKPLFEKELEFNEVEEVPKEKDYLIVIEKSA [r9_264_TrMRF] | 1.14 ± 0.21 kcal/mol
SAGGSAGGGKRLEITRTYFIPPDDIDKLKDLPGIREVTPHRMPDGYYMITVTIRIPISADQLKASAGGSAGG [r6_155_TrROS] | 1.94 ± 0.2 kcal/mol
SAGGSAGGSAGKTVQIWIPPDEITPEALKSLAREGWKIKPIEIRRNPEDGWISITIELKPSAGGSAGGSAGG [r11_345_TrROS] | 0.619 ± 0.25 kcal/mol
SAGGSAGGSSVTRLIYLEDGTVLVVKLTPKPLVLPDGKPAFVLGFEVVEIRPVKDPKEALKALSAGGSAGGS [r12_915_TrMRF] | 1.61 ± 0.071 kcal/mol
SAGGSAGGSAGGDKNGKKELRPEVKIKVKIEAEIEPFRYPNNGMPMWILKISIEITSIDSAGGSAGGSAGGS [r10_877_TrROS] | 4.5 ± 0.19 kcal/mol

Test: folding stability dG unfold from trypsin proteolysis; higher = more stable
Procedure, shortened: as §1

Sequence | folding stability dG unfold
SAGGIEELAKALGIEEVEVTSIDPETREVTVRVRVRGPDGEERTLTVKIRLEPAPPPVRTFSEEELKSSAGG [r13_608_TrROS_Hall] | 1.78 ± 0.029 kcal/mol
SAMKEGEEYEPVEKKKITIKNKKTNKTIEIEVVRNKKTNKYIVKITTKDGKKIEIVVSKEELEKLLKKLSAG [r14_240_TrROS_Hall] | 2.25 ± 0.19 kcal/mol
SAGGSAKMVLVKIKVEGMSVEEVKKLLEEAGAKVVKIDEEKKVIIVEVSPEKAEELAKKLGFEVEVSAGGSA [r15_731_TrROS_Hall] | 3.36 ± 0.14 kcal/mol
SGMMRTIVLKIPIEEARKLLGDPNKPVSEEELKALVEKLAKEKGLDVEEIKVEKLPDGTYVVTVLVPDLGSA [r9_52_JUSTAS] | 3.06 ± 0.12 kcal/mol
SAKLAKELAEELAKEILPKFPNIKAVKVEVEPLGDYAIATIIWEKENGKPIISKAIIEKNKKILKVDISSAG [r14_719_TrMRF] | 1.02 ± 0.047 kcal/mol
SAGGMVKLTVYETPDSYTVTIDLGDKPYTIPVPPGLSPEEAAARAVEELQKAFPDEEVVVESVEYVARSAGG [r13_884_JUSTAS] | 1.1 ± 0.079 kcal/mol
SAGGSAGGSAGPGLSITTTITTTTPAKLPNGTAPLRTTTTTIITELKPADPNNPVILANTSAGGSAGGSAGG [r11_236_JUSTAS] | 1.05 ± 0.053 kcal/mol
SAGGSAGGSAGIRLDSLEEALKYIRKNFPPGRTVEIRVYDGDKPVEITVQVDENGDIKIVSAGGSAGGSAGG [r17_69_TrROS] | 2.91 ± 0.15 kcal/mol
SAGGSAGGSAGGPKAPGDKAVPATVEVRVTEYAVVPGLGEKLEKLPEKTFKATFVFFNKSAGGSAGGSAGGS [r10_122_TrMRF] | -0.48 ± 0.26 kcal/mol
SAGSSMLDSLTVDTEVTLDPAKGTVLVKTTTTLPDGTVTRTVTTVTVEPLNPPPPPPPRFDPRTGEALESAG [r5_816_JUSTAS] | 0.79 ± 0.082 kcal/mol
SAGGSGMTVEVSVDPSTGTIRIKIKYGDKEYEVTAPVTRLPDGTYAVELKISAPNGPLLETKEITLPLSAGG [r13_59_JUSTAS] | 2.46 ± 0.086 kcal/mol
SAGGSEGMTVTELVKPPDSDEVLYVATDSAGNTFTLPGSLVKEALENGKTVEAPRPDGTAATLVLRSAGGSA [r2_301_JUSTAS] | 2.25 ± 0.4 kcal/mol
SAGKIKVYYDPKLGRIIEIPLPNGKRIRIYLPKNKLIIVAEDPEGNKAIPIEIETKIGDIIKIIKEIAGSAG [r5_820_TrMRF] | 2.9 ± 0.075 kcal/mol
SAGGSAMIVTEDPNGVLTTTENGKVTTTTVTPVPRPDPFSDKTFTEYVVTTTTTPVAPSPITPNTLSAGGSA [r15_515_JUSTAS] | 1.26 ± 0.032 kcal/mol
SAGGSAGGSKPEIRKIKIYTKEGGKKIIPVNGTVIEIDGKKYKVKPNDKIKVPKNVKKIEPEGSAGGSAGGS [r12_779_TrMRF] | -0.395 ± 0.25 kcal/mol
SAGGSAGGSAGPVKTVEVEIPGMSEEELLALLPPGVKRVEIEREEVEPGRVRLRIKVYEESAGGSAGGSAGG [r11_1002_TrROS_Hall] | 0.307 ± 0.062 kcal/mol
SAGGGDLEVELVEEREFTFPDGLRRRLLVVRFPDGFLAIPVYVRPPGGGWRLLARFVLRIGPPRPEEGSAGG [r13_494_TrMRF] | 3.22 ± 0.054 kcal/mol
SAGGGEKWKIKFKDAEAYINAPEGKVEIVPPDGSKITIDFPPDIPPEVVAKLLAEELGFDEAEIEPVESAGG [r13_852_TrMRF] | -0.263 ± 0.085 kcal/mol
SAGGGSVTVSLEGNTTYVRISREDGPERTYTFPQPNGEPLTFTEAPGRPGLITITRPATGEPVVLALSAGGS [r16_198_JUSTAS] | 0.281 ± 0.18 kcal/mol
SAGGSAGGSAGGGLEEIKEAIKKLPENVKEITIKLKDGSTIKIRVEKDKDGKYKITIEPSAGGSAGGSAGGS [r10_1017_TrROS_Hall] | 2.41 ± 0.3 kcal/mol
SAGGHHHHHHHHIDGKFRSEEEAKKLKEEIEKELRAKGYTDIEVEVEVKVEEPPPRRPRPGSPAYTLGSAGG [r13_6_JUSTAS] | 1.45 ± 0.16 kcal/mol

Sequence | folding stability dG unfold
SAGGSAGGSKVLIIEPEENKELAEKIAKELKEKGELGEVEIKTFSSPEEAKEYAKNYDIVITGSAGGSAGGS [r12_679_TrMRF] | -0.0715 ± 0.22 kcal/mol
SAPPETVEVEEVAEFELADGSKVTVAKVKLPNGETLVVVTVYNKDGEPVATFVVREGDPDALAEALKALSSA [r9_1069_TrROS_Hall] | 3.9 ± 0.3 kcal/mol
SAGGSAGGSAGGSEGAPIRVTLTGTRTETRTRPDGSPVTDSGTDTVEFTLDLYDPEKSGSAGGSAGGSAGGS [r4_450_TrMRF] | -1.4 ± 0.66 kcal/mol
SAGGSAGGGWITIPIYIIKMKRTRRDPDGKPKPLDPNDPEDFEVVPPRPFRIPLPPEEAKKLLKSAGGSAGG [r6_219_TrROS] | -0.542 ± 0.32 kcal/mol
SAGGMPPVVLEYEIDIKPDPNETLEDVLEKAEEFVEELKEAFPELDLKEVKVEVDPEKGKVKITVVFPSAGG [r13_1011_TrMRF] | 1.77 ± 0.11 kcal/mol
SAGKVIVIDAEEMTEEELKEILKKTKPGEKILIIAKSKEVAEKLKELGFEVEEVEKVPLTEEELKKLKKSAG [r5_354_TrROS_Hall] | 0.835 ± 0.063 kcal/mol
SAGGSALYIPPGTEHTVLIKLKDDDRYYEAKVTRVYPTSIEVEVEDPLTGEKKRYTINATDIELGDSAGGSA [r15_381_TrMRF] | 2.14 ± 0.12 kcal/mol
SAGGKIKIVLSAEELEKKFGKSIEELAAELAKKLFPNKKVKVKKVKIEKDENGKEKLYVEVEIEPEKPSAGG [r13_723_TrROS_Hall] | 2.91 ± 0.15 kcal/mol
SAGGSAGGSAGGNIEVLPIPDGYWVIKIPDGRIMVFNPGRGEFEPIPIENVTIEPVRPGDSAGGSAGGSAGG [r7_656_TrROS] | 0.4 ± 0.021 kcal/mol
SAGKKKKKKLKITIEITYNKETNTVTIKITVDGKEITVEVKAKSKEEALLNALKELEKKLNIKIKEVKLSAG [r5_251_TrROS_Hall] | 1.36 ± 0.13 kcal/mol
EMTEEELREKLPELSPEELEELARKLAEELGIEEVEEVEVVSVKPDGTIEVKVKLKDGEELTIEIPLEELLS [r1_435_TrROS_Hall] | 2.8 ± 0.26 kcal/mol
SAGGSAGGSAGGSPVAAKTLSKSTSLLPNGKVKTSTTTAFPTGETTTTTTTTPLSLTLTSAGGSAGGSAGGS [r10_1206_JUSTAS] | -0.654 ± 0.27 kcal/mol
SAGGSGSQEVDIDFKFPPNFNMDELAKKIEELPGIDIKPDRYDPENGTYKITINVNDPQAVREIIRSAGGSA [r2_305_TrROS] | 0.0473 ± 0.16 kcal/mol
SAGGMTPEELREKAKKLAEELAKKLKEKYPNVKVEVEVDEETKKVKIKVKNKKTGKTYEITINLEELLSAGG [r13_354_TrROS_Hall] | 3.85 ± 0.47 kcal/mol
SAGGATITVEPAPGDSVVALAEFGDSLALVTFYPKEATAKVTVFGPNGIPSTATFTIKPGEELVITGSAGGS [r8_11_TrMRF] | 1.25 ± 0.079 kcal/mol
SMIKPGEKIKKIKLKLENGEEVEATLVKNEDGSLVLFIKVDGEVYVFTFNPDGEIKIEKVSKEEAEKLLKSA [r9_1144_TrROS_Hall] | 2.05 ± 0.097 kcal/mol
SEKIVIEFPNPEEATVELIKSIIKPYLEPGEKVKIKVFSKDGKPLFEKELEFNEVEEVPKEKDYLIVIEKSA [r9_264_TrMRF] | 0.97 ± 0.076 kcal/mol
SAGGSAGGGKRLEITRTYFIPPDDIDKLKDLPGIREVTPHRMPDGYYMITVTIRIPISADQLKASAGGSAGG [r6_155_TrROS] | 1.7 ± 0.051 kcal/mol
SAGGSAGGSAGKTVQIWIPPDEITPEALKSLAREGWKIKPIEIRRNPEDGWISITIELKPSAGGSAGGSAGG [r11_345_TrROS] | 0.597 ± 0.076 kcal/mol
SAGGSAGGSSVTRLIYLEDGTVLVVKLTPKPLVLPDGKPAFVLGFEVVEIRPVKDPKEALKALSAGGSAGGS [r12_915_TrMRF] | 1.81 ± 0.039 kcal/mol
SAGGSAGGSAGGDKNGKKELRPEVKIKVKIEAEIEPFRYPNNGMPMWILKISIEITSIDSAGGSAGGSAGGS [r10_877_TrROS] | 2.96 ± 0.18 kcal/mol
